{
  "source": "patent US20100003727",
  "proteins": {"B1": {"name": "lipoyl transferase (LipB protein) of C. jeikeium (protein)", "chain": "MGFQQGSIRKANMGTTGTNDGATTPPANTSTPAVDIDVRDLGTVDYEDTWHLQANLAAQRAEEKIPDTILLLQHPPTYTAGKRTQDSDRPTNGLPVVDVDRGGRITWHGPGQLVAYPIIKLADPVDVVDYVRRLEQALIQTCEDLGLHGTGRVEGRSGVWLPAGVINGELKPARKIAAIGIRVTRGVTMHGVALNCDNTMEYYDHIVPCGLADAGVTTLTEELGRDVSVSDAYSSLAHNLVDALNGDLPVHS"}},
  "biological_target": "T1, lipoamide-containing aminomethyl transferase (GcvH, H-protein) of C. jeikeium",
  "T1 chain": "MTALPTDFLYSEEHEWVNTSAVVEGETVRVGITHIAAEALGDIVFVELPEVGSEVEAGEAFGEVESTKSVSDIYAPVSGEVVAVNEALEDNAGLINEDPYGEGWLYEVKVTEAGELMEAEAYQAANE",
  "data": [
    {"protein": "B1", "values": [
      {"measurement": "growth of serine-auxotrophic C. glutamicum OM264C transformants (pOM620AF, pOM621AR) on minimal glycine plates without serine and without lipoic acid", "value": "both transformants grew, while OM264C(pCLIK) did not"}
    ]}
  ]
}
